Experiments:
Assay type in all cases: cell-based, human
[1] = tested on: HEM-DP melanocytes; assay: Proliferation of cultured melanocytes, total cell numbers counted; conditions: NRG-1 50 ng/ml, as early as day 1 until confluent, vs control
Experimental: (§1) FIGS. 5A-5D illustrate the effect of NRG-1 on the proliferation of human melanocytes in culture. FIG. 5A) Lightly-pigmented (HEM-LP) and FIG. 5B) darkly-pigmented (HEM-DP) melanocytes were treated with or without NRG-1 (50 ng/ml) for 1, 3, 5 or 9 days in 10 cm culture dishes and total cell numbers were counted. Results are the averages of three studies±SD. FIG. 5C) Phosphorylated-Akt levels were detected by western blotting for HEM-LP and HEM-DP melanocytes treated with NRG-1 (50 ng/ml) for 5 days compared to vehicle treated controls; GAPDH is used as a loading control. FIG. 5D) HEM-DP melanocytes were treated with NRG-1 (50 ng/ml) for 1, 3 or 5 days and p-Akt levels were detected by western blotting compared to vehicle treated controls; GAPDH is used as a loading control. Results shown are representative of three studies; statistically significant differences are indicated.
(§2) Human neonatal epidermal melanocytes, lightly and darkly pigmented (HEM-LP and HEM-DP, respectively) were obtained from Cascade Biologics (Portland, Oreg.) and were cultured in melanocyte growth medium (MGM) consisting of Medium 254 and human melanocyte growth supplement (both from Cascade Biologics) at 37° C. under 5% CO2. Melanocytes from the third to ninth passage were used in these studies. […]

[2] = tested on: HEM-LP melanocytes; assay: as above; conditions: NRG-1 50 ng/ml, as early as day 1 until confluent, vs control
Experimental: as §1, §2

[3] = tested on: phospho-Akt (Ser473); assay: Phosphorylated-Akt levels by western blotting in melanocytes; conditions: NRG-1 50 ng/ml
Experimental: as §1
Fibroblast cultures in 100-mm dishes were solubilized in appropriate volumes of M-PER mammalian protein extraction reagent (Pierce Biotechnology, Rockford, Ill.) containing a Protease Inhibitor mixture (Roche, Mannheim, Germany) and phosphatase inhibitors. The protein concentration of each extract was measured using a BCA protein assay kit (Pierce, Rockford, Ill.). Cell extracts (20 μg) were separated on 8-16% gradient SDS polyacrylamide gels (Invitrogen, Carlsbad, Calif.), after which proteins were transferred to PVDF membranes (Invitrogen, Carlsbad, Calif.). Membranes were blocked for 1 hour in PBS or Tris buffered saline (TBS) containing 0.1% Tween 20 and 5% (w/v) nonfat dry milk powder and were incubated overnight at 4° C. with the primary antibody in PBS containing 0.1% Tween 20 and 2.5% (w/v) nonfat dry milk powder or in 0.1% Tween-TBS with 5% BSA, depending on the antibody. The following primary antibodies were used: anti-human DKK-1 (0.2 μg/ml), anti-human DKK-3 (0.1 μg/ml), anti-human bFGF (0.1 μg/ml), anti-human SCF (0.1 μg/ml), anti-human mouse monoclonal ERBB3 (1 μg/ml) and anti-human mouse monoclonal ERBB4 (2 μg/ml) antibodies from R&D Systems, neuregulin-1α/β1/2 (C-20) (1:500) and GAPDH (FL-335) (1:10,000) antibodies from Santa Cruz Biotechnology, ERBB2 rabbit monoclonal (1:1000) and phospho-Akt (Ser473) (1:1000) antibodies from Cell Signaling Technology. Membranes were then incubated with an HRP-linked anti-rabbit antibody (GE Healthcare) at 1:10,000 dilution or with an anti-goat antibody (DAKO) at 1:2,000 dilution at room temperature for 1 hour. Antigen-antibody complexes were detected using an ECL-plus Western blotting detection system (GE Healthcare). Each study was performed at least in triplicate. […]

B1: NRG-1: commercially available recombinant human neuregulin-1 (rhNRG-1-β1, R&D Systems), SEQ ID NO: 11 (protein)
chain: TSHLVKCAEKEKTFCVNGGECFMVKDLSNPSRYLCKCPNEFTGDRCQNYVMASFYKHLGIEFMEAEELYQK
[1]
  Cell numbers: significantly higher
[2]
  Cell numbers: significantly higher
[3]; HEM-DP, day 1, low confluency, vs control
  Levels of p-Akt: equally high
[3]; HEM-DP, day 3 through day 5, control decreased by day 3
  Levels of p-Akt, time course: maintained higher levels of p-Akt through day 5
[3]; HEM-DP, day 5, vs control
  Levels of p-Akt: significantly higher
[3]; HEM-LP, day 5, vs control
  Levels of p-Akt: significantly higher

Source: patent US9168297B2, “Regulation of skin pigmentation by neuregulin-1 (NRG-1)” (The United States of America, as Represented by the …, priority 2010, dated 2015)
